From paper PMC5628483, “Soluble polymorphic bank vole prion proteins induced by co-expression of quiescin sulfhydryl oxidase in E. coli and their aggregation behaviors” (Microbial Cell Factories, 2017)

Legend:
[1] = target: full-length recombinant bank vole prion protein with methionine at residue 109 (rBVPrP-109M) (bank vole (Myodes glareolus), UniProt Q8VHV5 23-231); assay: SPR; conditions: both partners purified
[2] = target: full-length recombinant bank vole prion protein with isoleucine at residue 109 (rBVPrP-109I) (bank vole (Myodes glareolus), UniProt Q8VHV5 23-231, 109I); assay: SPR; conditions: both partners purified

B1: Quiescin sulfhydryl oxidase (QSOX) (enzyme)
chain: APRSALYSPSDPLTLLQADTVRGAVLGSRSAWAVEFFASWCGHCIAFAPTWKALAEDVKAWRPALYLAALDCAEETNSAVCRDFNIPGFPTVRFFKAFTKNGSGAVFPVAGADVQTLRERLIDALESHHDTWPPACPPLEPAKLEEIDGFFARNNEEYLALIFEKGGSYLGREVALDLSQHKGVAVRRVLNTEANVVRKFGVTDFPSCYLLFRNGSVSRVPVLMESRSFYTAYLQRLSGLTREAAQTTVAPTTANKIAPTVWKLADRSKIYMADLESALHYILRIEVGRFPVLEGQRLVALKKFVAVLAKYFPGRPLVQNFLHSVNEWLKRQKRNKIPYSFFKTALDDRKEGAVLAKKVNWIGCQGSEPHFRGFPCSLWVLFHFLTVQAARQNVDHSQEAAKAKEVLPAIRGYVHYFFGCRDCASHFEQMAAASMHRVGSPNAAVLWLWSSHNRVNARLAGAPSEDPQFPKVQWPPRELCSACHNERLDVPVWDVEATLNFLKAHFSPSNIILDFPAAGSAARRDVQNVAAAPELAMGALELESRNSTLDPGKPEMMKSPTNTTPHVPAEGPELI
- Kd [1]: 23 nM
- Kd [2]: 11 nM
